Results taken from paper PMC9482650, “Quantitative fragmentomics allow affinity mapping of interactomes” (Nature Communications, 2022).

T1: APBA2_1, Q99767
T1 sequence (Q99767 563-664, limits assumed, looked up): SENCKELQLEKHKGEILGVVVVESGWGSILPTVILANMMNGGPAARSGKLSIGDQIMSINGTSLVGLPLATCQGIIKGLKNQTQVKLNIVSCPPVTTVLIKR

T2: APBA3_1, O96018
T2 sequence (O96018 389-490, limits assumed, looked up): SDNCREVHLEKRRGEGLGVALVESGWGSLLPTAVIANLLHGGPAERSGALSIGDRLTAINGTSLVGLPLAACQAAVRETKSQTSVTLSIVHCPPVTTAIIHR

T3: ARHGEF11, O15085
T3 sequence (O15085 42-136, limits assumed, looked up): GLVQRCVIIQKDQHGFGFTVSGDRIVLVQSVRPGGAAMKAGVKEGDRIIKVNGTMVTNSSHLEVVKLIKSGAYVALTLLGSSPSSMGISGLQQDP

T4: CARD11, Q9BXL7
T4 sequence (Q9BXL7 662-765, limits assumed, looked up): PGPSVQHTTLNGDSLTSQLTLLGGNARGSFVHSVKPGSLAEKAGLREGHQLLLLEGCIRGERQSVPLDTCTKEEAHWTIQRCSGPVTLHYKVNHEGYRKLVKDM

T5: FRMPD1, Q5SYB0
T5 sequence (Q5SYB0 52-145, limits assumed, looked up): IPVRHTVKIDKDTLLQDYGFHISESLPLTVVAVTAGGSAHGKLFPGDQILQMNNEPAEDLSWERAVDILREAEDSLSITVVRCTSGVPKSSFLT

T6: HTRA3, P83110
T6 sequence (P83110 354-453, limits assumed, looked up): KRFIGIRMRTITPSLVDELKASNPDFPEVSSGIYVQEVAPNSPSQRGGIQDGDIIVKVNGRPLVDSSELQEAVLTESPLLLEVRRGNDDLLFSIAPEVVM

T7: MPP6, Q9NZW5
T7 sequence (Q9NZW5 125-219, limits assumed, looked up): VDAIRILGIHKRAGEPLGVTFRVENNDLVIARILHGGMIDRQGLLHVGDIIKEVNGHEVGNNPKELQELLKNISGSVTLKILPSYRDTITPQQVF

T8: MPP7, Q5T2T1
T8 sequence (Q5T2T1 134-230, limits assumed, looked up): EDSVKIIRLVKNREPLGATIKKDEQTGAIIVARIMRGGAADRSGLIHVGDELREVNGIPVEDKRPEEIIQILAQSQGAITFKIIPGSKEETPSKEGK

T9: NHERF3_4, Q5T2W1
T9 sequence (Q5T2W1 373-468, limits assumed, looked up): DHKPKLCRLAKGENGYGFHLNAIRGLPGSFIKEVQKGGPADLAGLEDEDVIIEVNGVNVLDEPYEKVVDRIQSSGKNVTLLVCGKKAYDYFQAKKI

T10: PDZD7_3, Q9H5P4
T10 sequence (Q9H5P4 857-944, limits assumed, looked up): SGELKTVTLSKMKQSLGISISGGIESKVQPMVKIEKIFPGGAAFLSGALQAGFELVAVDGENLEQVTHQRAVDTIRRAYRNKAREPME

T11: RHPN1, Q8TCX5
T11 sequence (Q8TCX5 508-602, limits assumed, looked up): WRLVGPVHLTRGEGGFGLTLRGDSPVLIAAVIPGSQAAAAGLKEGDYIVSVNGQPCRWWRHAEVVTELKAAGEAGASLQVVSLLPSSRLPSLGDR

T12: SNTA1, Q13424
T12 sequence (Q13424 82-180, limits assumed, looked up): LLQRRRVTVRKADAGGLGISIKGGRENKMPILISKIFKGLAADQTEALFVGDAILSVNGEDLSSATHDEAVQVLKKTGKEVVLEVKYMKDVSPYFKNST

T13: SNTG1, Q9NSN8
T13 sequence (Q9NSN8 52-150, limits assumed, looked up): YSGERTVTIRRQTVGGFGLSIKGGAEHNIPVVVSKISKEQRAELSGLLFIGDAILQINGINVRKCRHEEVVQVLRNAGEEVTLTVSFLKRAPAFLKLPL

T14: TJP3_3, O95049
T14 sequence (O95049 375-456, limits assumed, looked up): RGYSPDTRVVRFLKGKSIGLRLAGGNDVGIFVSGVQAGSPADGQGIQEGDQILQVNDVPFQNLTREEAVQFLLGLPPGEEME

T15: TX1BP3, O14907
T15 sequence (O14907 10-122, limits assumed, looked up): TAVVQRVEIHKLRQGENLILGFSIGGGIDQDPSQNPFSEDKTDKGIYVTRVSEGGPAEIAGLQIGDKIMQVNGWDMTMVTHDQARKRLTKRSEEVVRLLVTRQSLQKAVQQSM


Experiments:
Test in all cases: holdup assay
Parameters in all cases: key: below the threshold = too weak to quantify, mostly under pKd 3.1 to 4
Settings in all cases: plain residues with an end cap or a label only (N-terminal biotin on a linker: ado-ado)
APBA2_1, Q99767 = target: T1, APBA2_1, Q99767
APBA3_1, O96018 = target: T2, APBA3_1, O96018
ARHGEF11, O15085 = target: T3, ARHGEF11, O15085
CARD11, Q9BXL7 = target: T4, CARD11, Q9BXL7
CASK, O14936 = target: CASK, O14936
FRMPD1, Q5SYB0 = target: T5, FRMPD1, Q5SYB0
FRMPD2_1, Q68DX3 = target: FRMPD2_1, Q68DX3
GRIP2_4, Q9C0E4 = target: GRIP2_4, Q9C0E4
GRIP2_7, Q9C0E4 = target: GRIP2_7, Q9C0E4
HTRA3, P83110 = target: T6, HTRA3, P83110
MAGI1_1, Q96QZ7 = target: MAGI1_1, Q96QZ7
MAGI2_6, Q86UL8 = target: MAGI2_6, Q86UL8
MPP6, Q9NZW5 = target: T7, MPP6, Q9NZW5
MPP7, Q5T2T1 = target: T8, MPP7, Q5T2T1
NHERF3_4, Q5T2W1 = target: T9, NHERF3_4, Q5T2W1
PDZD7_3, Q9H5P4 = target: T10, PDZD7_3, Q9H5P4
RHPN1, Q8TCX5 = target: T11, RHPN1, Q8TCX5
SNTA1, Q13424 = target: T12, SNTA1, Q13424
SNTG1, Q9NSN8 = target: T13, SNTG1, Q9NSN8
TJP1_2, Q07157 = target: TJP1_2, Q07157
TJP3_3, O95049 = target: T14, TJP3_3, O95049
TX1BP3, O14907 = target: T15, TX1BP3, O14907

Chain of FRMPD2_1, Q68DX3 (Q68DX3 770-861): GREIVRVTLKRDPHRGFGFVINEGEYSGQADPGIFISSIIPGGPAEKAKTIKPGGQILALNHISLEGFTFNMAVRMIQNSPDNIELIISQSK
Chain of MAGI1_1, Q96QZ7 (Q96QZ7 1-106): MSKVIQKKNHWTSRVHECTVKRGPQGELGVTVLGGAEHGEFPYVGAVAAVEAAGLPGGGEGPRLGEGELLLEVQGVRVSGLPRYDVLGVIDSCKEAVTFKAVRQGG
Chain of MAGI2_6, Q86UL8 (Q86UL8 1141-1229): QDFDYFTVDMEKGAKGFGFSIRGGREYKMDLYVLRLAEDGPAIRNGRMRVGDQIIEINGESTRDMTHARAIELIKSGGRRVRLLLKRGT
Chain of GRIP2_4, Q9C0E4 (Q9C0E4 446-548): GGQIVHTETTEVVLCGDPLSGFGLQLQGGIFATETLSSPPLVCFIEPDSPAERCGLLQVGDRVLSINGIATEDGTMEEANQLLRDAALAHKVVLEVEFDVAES
Chain of TJP1_2, Q07157 (Q07157 181-274): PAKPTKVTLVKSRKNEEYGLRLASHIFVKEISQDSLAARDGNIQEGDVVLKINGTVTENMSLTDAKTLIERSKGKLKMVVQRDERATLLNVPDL
Chain of CASK, O14936 (O14936 487-570): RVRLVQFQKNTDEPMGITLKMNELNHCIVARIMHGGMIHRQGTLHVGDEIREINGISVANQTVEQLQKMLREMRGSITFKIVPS
Chain of GRIP2_7, Q9C0E4 (Q9C0E4 934-1023): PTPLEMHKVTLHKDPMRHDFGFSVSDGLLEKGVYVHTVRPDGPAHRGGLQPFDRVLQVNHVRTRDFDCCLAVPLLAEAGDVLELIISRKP

Row | Binder | pKd (APBA2_1, Q99767) | pKd (APBA3_1, O96018) | pKd (ARHGEF11, O15085) | pKd (CARD11, Q9BXL7) | pKd (CASK, O14936) | pKd (FRMPD1, Q5SYB0) | pKd (FRMPD2_1, Q68DX3) | pKd (GRIP2_4, Q9C0E4) | pKd (GRIP2_7, Q9C0E4) | pKd (HTRA3, P83110) | pKd (MAGI1_1, Q96QZ7) | pKd (MAGI2_6, Q86UL8) | pKd (MPP6, Q9NZW5) | pKd (MPP7, Q5T2T1) | pKd (PDZD7_3, Q9H5P4) | pKd (RHPN1, Q8TCX5) | pKd (SNTA1, Q13424) | pKd (SNTG1, Q9NSN8) | pKd (TJP3_3, O95049) | pKd (TX1BP3, O14907) | also measured
1 | IDESKKEWLI [CNTNAP2, Q9UHC6] | below the threshold | below the threshold | below the threshold | below the threshold | below the threshold | below the threshold | below the threshold | below the threshold | 4.45 | 4.15 | below the threshold | below the threshold | 4.54 | 5.46 | below the threshold | below the threshold | below the threshold | below the threshold | below the threshold | below the threshold | pKd (NHERF3_4, Q5T2W1): below the threshold; pKd (TJP1_2, Q07157): 3.5
2 | SRSVVESDEL [MYPN, Q86TC9] | below the threshold | below the threshold | 3.74 | below the threshold | below the threshold | below the threshold | below the threshold | below the threshold | below the threshold | below the threshold | 3.53 | below the threshold | below the threshold | below the threshold | 3.75 | below the threshold | 3.6 | below the threshold | below the threshold | below the threshold | pKd (NHERF3_4, Q5T2W1): below the threshold; pKd (TJP1_2, Q07157): 3.51
3 | KRPEMTSSSV [MUC3A, MUC3B, Q02505;Q9H195] | below the threshold | below the threshold | 3.74 | 1.75 | – | – | – | below the threshold | below the threshold | below the threshold | below the threshold | 3.66 | below the threshold | below the threshold | – | 3.84 | 1.76 | 4.08 | below the threshold | – | –
4 | DTKNYKQTSV [CRIPT, Q9P021] | below the threshold | below the threshold | 4.12 | below the threshold | below the threshold | below the threshold | below the threshold | below the threshold | below the threshold | below the threshold | below the threshold | 3.75 | below the threshold | below the threshold | 3.94 | 4.07 | 4.74 | 4.12 | below the threshold | 5.4 | pKd (NHERF3_4, Q5T2W1): 3.56; pKd (TJP1_2, Q07157): below the threshold
5 | PSVGSKKTVL [REELD1, A0A1B0GV85] | below the threshold | below the threshold | 4.2 | below the threshold | below the threshold | below the threshold | below the threshold | below the threshold | below the threshold | below the threshold | below the threshold | below the threshold | below the threshold | below the threshold | 4.67 | 3.92 | 3.73 | below the threshold | below the threshold | below the threshold | pKd (NHERF3_4, Q5T2W1): 3.87; pKd (TJP1_2, Q07157): below the threshold
6 | DRIQSCLSDA [SBF1, O95248] | below the threshold | below the threshold | below the threshold | below the threshold | below the threshold | below the threshold | below the threshold | below the threshold | below the threshold | 3.57 | below the threshold | below the threshold | below the threshold | below the threshold | below the threshold | below the threshold | below the threshold | below the threshold | below the threshold | 4.04 | pKd (NHERF3_4, Q5T2W1): below the threshold; pKd (TJP1_2, Q07157): below the threshold
7 | KSRVAFFEEL [NF2, P35240;P35240-1] | – | below the threshold | 4.32 | below the threshold | below the threshold | below the threshold | below the threshold | – | below the threshold | below the threshold | below the threshold | 4.05 | below the threshold | below the threshold | 4.12 | below the threshold | below the threshold | below the threshold | below the threshold | 4.34 | –
